Laboratory results: article doi:10.1101/2024.07.10.602929 (2024)
Each block holds one binder with its values, some of them ahead of it. Where no end group is shown, it is not given here. The star is where a group is joined. Biotin = O=C1N[C@H]2[C@H](CS[C@H]2CCCCC(=O)*)N1

Columns and labels:
Assay in all cases: BLI
LC3A = LC3A (human, UniProt Q9H492 1-121)
GABARAPL2 = GABARAPL2 (human, UniProt P60520 1-117)
1 = 1 (human, UniProt Q9H0R8 1-117)
[1] = target: GABARAP (γ-aminobutyric acid type A receptor-associated protein) (human, UniProt O95166 1-117)
Sequence of GABARAP (γ-aminobutyric acid type A receptor-associated protein) (O95166 whole entry): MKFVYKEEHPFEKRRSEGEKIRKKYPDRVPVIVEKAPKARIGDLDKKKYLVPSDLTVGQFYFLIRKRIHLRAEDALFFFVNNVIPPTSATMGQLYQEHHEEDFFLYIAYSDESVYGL

LC3B = LC3B (human, UniProt Q9GZQ8 1-120)

Sequence of GABARAPL2 (P60520 whole entry): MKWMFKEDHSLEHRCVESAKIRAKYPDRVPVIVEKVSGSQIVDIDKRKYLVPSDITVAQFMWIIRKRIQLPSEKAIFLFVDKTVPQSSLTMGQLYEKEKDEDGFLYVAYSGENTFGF
Sequence of 1 (Q9H0R8 whole entry): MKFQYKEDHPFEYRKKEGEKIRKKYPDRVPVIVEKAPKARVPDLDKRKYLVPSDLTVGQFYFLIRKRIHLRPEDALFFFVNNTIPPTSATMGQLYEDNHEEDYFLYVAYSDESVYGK

- Kd (LC3A): 648 µM
- Kd (GABARAPL2): 146 µM
- Kd 1: 48 µM
- Kd [1]: 304 µM
- Kd (LC3B): 1460 µM
B1: EGFR LIR2 peptide (EGFR residues 1190–1210), N-terminally biotinylated (peptide)
peptide: Biotin-STAENAEYLRVAPQSSEFIGA

- Kd (LC3A): 118 µM
- Kd (GABARAPL2): 15 µM
- Kd [1]: 3.7 µM
- Kd (LC3B): 369 µM
B2: PCM1 LIR peptide (pericentriolar material 1 protein residues 1954-1968), N-terminally biotinylated (peptide)
peptide: Biotin-ISQKSDEEDFVKVED

- Kd (LC3A): 231 µM
- Kd (GABARAPL2): 105 µM
- Kd 1: 21.6 µM
- Kd (LC3B): 435 µM
B3: EGFR LIR1 peptide (EGFR residues 1076–1099), N-terminally biotinylated (peptide)
peptide: Biotin-ALTEDSIDDTFLPVPEYINQSVPK
